Results reported in publication PMC3050594 (Nature structural & molecular biology, 2010).

Target: RSV F0 Fd glycoprotein (Human respiratory syncytial virus; …, UniProt P03420, stabilised, glycosylated)
Assay: SEC

B1: palivizumab Fab (Fab, V domains shown)
VH: QVTLRESGPALVKPTQTLTLTCTFSGFSLSTSGMSVGWIRQPPGKALEWLADIWWDDKKDYNPSLKSRLTISKDTSKNQVVLKVTNMDPADTATYYCARSMITNWYFDVWGAGTTVTVSS
VL: DIQMTQSPSTLSASVGDRVTITCKCQLSVGYMHWYQQKPGKAPKLLIYDTSKLASGVPSRFSGSGSGTEFTLTISSLQPDDFATYYCFQGSGYPFTFGGGTKLEIK
stoichiometry N: 2.97 Fabs per trimer
